Target: T1, 宫颈癌组织/细胞中内源的HPV16 E6蛋白 (HPV16, UniProt P03126 1-158)
T1 construct: Target detected by IHC or ICC in fixed tissue or cells; also called HPV16 E6致癌蛋白; HPV16 E6癌蛋白
Experiment: IHC on FFPE cervical cancer tissue array, clone supernatant

T1 sequence (P03126 whole entry): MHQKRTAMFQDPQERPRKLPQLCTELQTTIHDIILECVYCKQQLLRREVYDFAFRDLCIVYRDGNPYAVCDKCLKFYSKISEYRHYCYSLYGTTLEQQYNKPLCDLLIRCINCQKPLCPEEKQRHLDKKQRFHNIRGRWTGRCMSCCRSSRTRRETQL

B1: 抗HPV16 E6单克隆抗体A3E1 (antibody, V domains shown)
VH: QSLEESGGGLVTPGGTLTLTCTASGIDFSANYWIYWVRQTPGKGLEWIASIFTSDGETHYATWAKGRFTISKTSSTTVTLQMTSLTAADTATYFCATGGALWGPGTLVTVSS
VL: DIVMTQTPASVEAAVGGTVTIKCQASEDIENYLAWYQQKPGQPPKRLIYKASTLASGVPSRFKGSGSGTDFTLTISDLECADAATYYCQSNYYNFGSNYGSFAFGGGTEVVVK
notes: Rabbit monoclonal IgG from single B cell cloning, tested as B cell clone supernatant and as recombinant IgG from CHO cells; also called 克隆上清A3E1; 抗体克隆A3E1
B1: binds.
